Experimental data from patent publication US8840891 (RSR, dated 2014).

Target: human TSHR, wild type, expressed on CHO cells (human) (UniProt P16473)
Assay: cell-based or functional assay

B1: 5C9 IgG (human monoclonal autoantibody to the TSHR) (antibody, from another filing, V domains shown)
VH: EVQLVESGGGLIQPGGSLRLSCAASGFTVSSNYMSWVRQAPGKGLEWVSVTYSGGSTSYADSVKGRFTISRDNSKNTLYLQMNSLRAEDTAVYYCARGGRYCSSISCYARSGCDYWGQGTLVTVSS
VL: AIQMTQSPSSLSASVGDRVTITCRASQSISNYLNWYQQKPGKAPKLLIYAASSLQSGVPSRFSGSGSGTDFTLTISSLQPEDFATYYCQQSYSSPSTTFGQGTKLEIK
Binder B1 has a % inhibition of basal cyclic AMP production; Exp 2; 5C9 IgG 0.001 µg/mL of 10.8%, a % inhibition of basal cyclic AMP production; Exp 2; 5C9 IgG 0.01 µg/mL of 37.2% and a % inhibition of basal cyclic AMP production; Exp 2; 5C9 IgG 0.1 µg/mL of 45.7%. For the same binder, the % inhibition of basal cyclic AMP production; Exp 2; 5C9 IgG 1 µg/mL was 71%, the % inhibition of basal cyclic AMP production; Exp 2; 5C9 IgG 10 µg/mL was 74.6% and the % inhibition of basal cyclic AMP production; Exp 2; 5C9 IgG 100 µg/mL was 54.9%. The % inhibition of basal cyclic AMP production; Exp 3; 5C9 IgG 0.1 µg/mL was 1%, the % inhibition of basal cyclic AMP production; Exp 3; 5C9 IgG 1 µg/mL was 61% and the % inhibition of basal cyclic AMP production; Exp 3; 5C9 IgG 10 µg/mL was 59%. It also gave a % inhibition of basal cyclic AMP production; Exp 3; 5C9 IgG 100 µg/mL of 56%, a cyclic AMP; Exp 1; 5C9 1 µg/mL + TSH 3 ng/mL of 13.9 pmol/mL and a cyclic AMP; Exp 1; 5C9 10 µg/mL + TSH 3 ng/mL of 3.7 pmol/mL. For the same binder, the cyclic AMP; Exp 1; 5C9 10 µg/mL only was 0.45 pmol/mL, the cyclic AMP; Exp 1; native human TSH 100 ng/mL + 5C9 IgG 0.001 µg/mL was 36 pmol/mL and the cyclic AMP; Exp 1; native human TSH 100 ng/mL + 5C9 IgG 0.01 µg/mL was 18 pmol/mL. It also gave a cyclic AMP; Exp 1; native human TSH 100 ng/mL + 5C9 IgG 0.1 µg/mL of 0.2 pmol/mL, a cyclic AMP; Exp 1; native human TSH 100 ng/mL + 5C9 IgG 1.0 µg/mL of 0.14 pmol/mL and a cyclic AMP; Exp 1; native human TSH 100 ng/mL + 5C9 IgG 10 µg/mL of 0.11 pmol/mL. It also gave a cyclic AMP; Exp 1; native human TSH 100 ng/mL + 5C9 IgG 100 µg/mL of 0.16 pmol/mL, a cyclic AMP; Exp 1; recombinant human TSH 100 ng/mL + 5C9 IgG 0.001 µg/mL of 13.6 pmol/mL and a cyclic AMP; Exp 1; recombinant human TSH 100 ng/mL + 5C9 IgG 0.01 µg/mL of 8.13 pmol/mL. It also gave a cyclic AMP; Exp 1; recombinant human TSH 100 ng/mL + 5C9 IgG 0.1 µg/mL of 0.12 pmol/mL, a cyclic AMP; Exp 1; recombinant human TSH 100 ng/mL + 5C9 IgG 1.0 µg/mL of 0.1 pmol/mL and a cyclic AMP; Exp 1; recombinant human TSH 100 ng/mL + 5C9 IgG 10 µg/mL of 0.12 pmol/mL. For the same binder, the cyclic AMP; Exp 1; recombinant human TSH 100 ng/mL + 5C9 IgG 100 µg/mL was 0.19 pmol/mL, the cyclic AMP; Exp 2; 5C9 1 µg/mL + TSH 3 ng/mL was 6.1 pmol/mL and the cyclic AMP; Exp 2; 5C9 10 µg/mL + TSH 3 ng/mL was 3.1 pmol/mL. It also gave a cyclic AMP; Exp 2; 5C9 10 µg/mL only of 0.4 pmol/mL, a cyclic AMP; Exp 2; native human TSH 100 ng/mL + 5C9 IgG 0.001 µg/mL of 37.6 pmol/mL and a cyclic AMP; Exp 2; native human TSH 100 ng/mL + 5C9 IgG 0.01 µg/mL of 34.4 pmol/mL. It also gave a cyclic AMP; Exp 2; native human TSH 100 ng/mL + 5C9 IgG 0.1 µg/mL of 15.8 pmol/mL, a cyclic AMP; Exp 2; native human TSH 100 ng/mL + 5C9 IgG 1.0 µg/mL of 0.13 pmol/mL and a cyclic AMP; Exp 2; native human TSH 100 ng/mL + 5C9 IgG 10 µg/mL of 0.18 pmol/mL. For the same binder, the cyclic AMP; Exp 2; native human TSH 100 ng/mL + 5C9 IgG 100 µg/mL was 0.21 pmol/mL, the cyclic AMP; Exp 2; native porcine TSH 0.3 ng/mL + 5C9 IgG 0.001 µg/mL was 32.7 pmol/mL and the cyclic AMP; Exp 2; native porcine TSH 0.3 ng/mL + 5C9 IgG 0.01 µg/mL was 28.2 pmol/mL. The cyclic AMP; Exp 2; native porcine TSH 0.3 ng/mL + 5C9 IgG 0.1 µg/mL was 18 pmol/mL, the cyclic AMP; Exp 2; native porcine TSH 0.3 ng/mL + 5C9 IgG 1.0 µg/mL was 2.14 pmol/mL and the cyclic AMP; Exp 2; native porcine TSH 0.3 ng/mL + 5C9 IgG 10 µg/mL was 0.2 pmol/mL. The cyclic AMP; Exp 2; native porcine TSH 0.3 ng/mL + 5C9 IgG 100 µg/mL was 0.18 pmol/mL, the cyclic AMP; Exp 2; recombinant human TSH 100 ng/mL + 5C9 IgG 0.001 µg/mL was 20 pmol/mL and the cyclic AMP; Exp 2; recombinant human TSH 100 ng/mL + 5C9 IgG 0.01 µg/mL was 20.6 pmol/mL. It also gave a cyclic AMP; Exp 2; recombinant human TSH 100 ng/mL + 5C9 IgG 0.1 µg/mL of 7.39 pmol/mL, a cyclic AMP; Exp 2; recombinant human TSH 100 ng/mL + 5C9 IgG 1.0 µg/mL of 0.07 pmol/mL and a cyclic AMP; Exp 2; recombinant human TSH 100 ng/mL + 5C9 IgG 10 µg/mL of 0.07 pmol/mL. The cyclic AMP; Exp 2; recombinant human TSH 100 ng/mL + 5C9 IgG 100 µg/mL was 0.11 pmol/mL, the cyclic AMP; Exp 3; 5C9 0.01 µg/mL + TSH 3 ng/mL was 33.9 pmol/mL and the cyclic AMP; Exp 3; 5C9 0.1 µg/mL + TSH 3 ng/mL was 18.7 pmol/mL. For the same binder, the cyclic AMP; Exp 3; 5C9 1 µg/mL + TSH 3 ng/mL was 5.4 pmol/mL, the cyclic AMP; Exp 3; 5C9 10 µg/mL + TSH 3 ng/mL was 1.9 pmol/mL and the cyclic AMP; Exp 3; 5C9 100 µg/mL + TSH 3 ng/mL was 1.4 pmol/mL. The cyclic AMP; Exp 3; 5C9 100 µg/mL only was 0.5 pmol/mL, the cyclic AMP; Exp 3; native human TSH 100 ng/mL + 5C9 IgG 0.001 µg/mL was 36 pmol/mL and the cyclic AMP; Exp 3; native human TSH 100 ng/mL + 5C9 IgG 0.01 µg/mL was 28.4 pmol/mL. It also gave a cyclic AMP; Exp 3; native human TSH 100 ng/mL + 5C9 IgG 0.1 µg/mL of 7.22 pmol/mL, a cyclic AMP; Exp 3; native human TSH 100 ng/mL + 5C9 IgG 1.0 µg/mL of 0.67 pmol/mL and a cyclic AMP; Exp 3; native human TSH 100 ng/mL + 5C9 IgG 10 µg/mL of 0.8 pmol/mL. The cyclic AMP; Exp 3; native human TSH 100 ng/mL + 5C9 IgG 100 µg/mL was 1.35 pmol/mL, the cyclic AMP; Exp 3; native porcine TSH 0.3 ng/mL + 5C9 IgG 0.001 µg/mL was 38.2 pmol/mL and the cyclic AMP; Exp 3; native porcine TSH 0.3 ng/mL + 5C9 IgG 0.01 µg/mL was 26.6 pmol/mL. For the same binder, the cyclic AMP; Exp 3; native porcine TSH 0.3 ng/mL + 5C9 IgG 0.1 µg/mL was 10.1 pmol/mL, the cyclic AMP; Exp 3; native porcine TSH 0.3 ng/mL + 5C9 IgG 1.0 µg/mL was 2.28 pmol/mL and the cyclic AMP; Exp 3; native porcine TSH 0.3 ng/mL + 5C9 IgG 10 µg/mL was 0.68 pmol/mL. The cyclic AMP; Exp 3; native porcine TSH 0.3 ng/mL + 5C9 IgG 100 µg/mL was 1.03 pmol/mL, the cyclic AMP; Exp 3; recombinant human TSH 100 ng/mL + 5C9 IgG 0.001 µg/mL was 25.6 pmol/mL and the cyclic AMP; Exp 3; recombinant human TSH 100 ng/mL + 5C9 IgG 0.01 µg/mL was 22.9 pmol/mL. It also gave a cyclic AMP; Exp 3; recombinant human TSH 100 ng/mL + 5C9 IgG 0.1 µg/mL of 1.18 pmol/mL, a cyclic AMP; Exp 3; recombinant human TSH 100 ng/mL + 5C9 IgG 1.0 µg/mL of 0.81 pmol/mL and a cyclic AMP; Exp 3; recombinant human TSH 100 ng/mL + 5C9 IgG 10 µg/mL of 0.74 pmol/mL. It also gave a cyclic AMP; Exp 3; recombinant human TSH 100 ng/mL + 5C9 IgG 100 µg/mL of 0.88 pmol/mL, a cyclic AMP; Exp 4; 5C9 0.1 µg/mL + TSH 0.3 ng/mL of 6.2 pmol/mL and a cyclic AMP; Exp 4; 5C9 1 µg/mL + TSH 0.3 ng/mL of 1.65 pmol/mL. For the same binder, the cyclic AMP; Exp 4; 5C9 10 µg/mL + TSH 0.3 ng/mL was 0.23 pmol/mL, the cyclic AMP; Exp 4; 5C9 100 µg/mL + TSH 0.3 ng/mL was 0.29 pmol/mL and the cyclic AMP; Exp 4; 5C9 100 µg/mL only was 0.15 pmol/mL. It also gave a cyclic AMP; Exp 5; 5C9 0.1 µg/mL + TSH 0.3 ng/mL of 12.4 pmol/mL, a cyclic AMP; Exp 5; 5C9 1 µg/mL + TSH 0.3 ng/mL of 2.57 pmol/mL and a cyclic AMP; Exp 5; 5C9 5 µg/mL + TSH 0.3 ng/mL of 1.21 pmol/mL. It also gave a cyclic AMP; Exp 5; 5C9 10 µg/mL + TSH 0.3 ng/mL of 1.17 pmol/mL, a cyclic AMP; Exp 5; 5C9 10 µg/mL only of 0.38 pmol/mL and a cyclic AMP; TSMAb 1 1 µg/mL + 5C9 IgG 100 µg/mL of 1.24 pmol/mL. It also gave a cyclic AMP; TSMAb 2 1 µg/mL + 5C9 IgG 100 µg/mL of 2.26 pmol/mL, a cyclic AMP; TSMAb 4 10 ng/mL + 5C9 IgG 100 µg/mL of 2.2 pmol/mL and a cyclic AMP; TSMAb 5 100 ng/mL + 5C9 IgG 100 µg/mL of 0.85 pmol/mL. The cyclic AMP; TSMAb 7 100 ng/mL + 5C9 IgG 100 µg/mL was 1.26 pmol/mL.
